Laboratory results taken from patent publication EP3632934A1 (F. Hoffmann-La Roche AG, dated 2020).

Target: T1, human OX40 (Sino Biological Inc) (human, UniProt P43489 29-216)
T1 construct: Bought soluble protein used as SPR analyte; also called huOX40
T1 sequence: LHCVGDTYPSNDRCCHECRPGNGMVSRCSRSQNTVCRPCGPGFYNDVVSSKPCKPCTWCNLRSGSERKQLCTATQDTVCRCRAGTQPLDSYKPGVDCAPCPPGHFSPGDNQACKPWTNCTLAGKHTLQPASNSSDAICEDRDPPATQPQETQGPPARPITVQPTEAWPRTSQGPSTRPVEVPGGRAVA
Experiment: SPR, Biacore; against parent 1A7.gr.1

B1: 1A7.gr.SGDS (antibody, V domains shown)
VH: EVQLVQSGAEVKKPGASVKVSCKASGYTFTDSYMSWVRQAPGQGLEWIGDMYPDSGDSSYNQKFRERVTITRDTSTSTAYLELSSLRSEDTAVYYCVLAPRWYFSVWGQGTLVTVSS
VL: DIQMTQSPSSLSASVGDRVTITCRASQDISNYLNWYQQKPGKAPKLLIYYTSRLRSGVPSRFSGSGSGTDFTLTISSLQPEDFATYYCQQGHTLPPTFGQGTKVEIK
  fold loss of binding affinity against 1A7.gr.1: 2 fold
